Holding throughout (test): FP
Experiment [1] has as its target T1, HPV33 E6 phospho-PBM peptide p33E6 (human papillomavirus type 33).
Experiment [2] addresses T2, HPV35 E6 phospho-PBM peptide p35E6 (human papillomavirus type 35).
Experiment [3] deals with T1, HPV33 E6 phospho-PBM peptide p33E6. The source holds these as a separate data set.
Experiment [4] has as its target T2, HPV35 E6 phospho-PBM peptide p35E6. The source holds these as a separate data set.

Like-named read-outs stand apart in the source and are kept apart here.

B1: full-length human 14-3-3β fused to the C terminus of MBP (natural protein)
chain: MTMDKSELVQKAKLAEQAERYDDMAAAMKAVTEQGHELSNEERNLLSVAYKNVVGARRSSWRVISSIEQKTERNEKKQQMGKEYREKIEAELQDICNDVLELLDKYLIPNATQPESKVFYLKMKGDYFRYLSEVASGDNKQTTVSNSQQAYQEAFEISKKEMQPTHPIRLGLALNFSVFYYEILNSPEKACSLAKTAFDEAIAELDTLNEESYKDSTLIMQLLRDNLTLWTSENQGDEGDAGEGEN
One may read the Kd as the free concentration of one partner at which half of the binding sites on the other are occupied at equilibrium, for simple one-to-one binding. A high value points to weaker binding. Regarding B1, the Kd in experiment [1] was 4.1 µM; in experiment [2], above 300 µM; in experiment [3] it was 4.05 µM.

B2: full-length human 14-3-3σ fused to the C terminus of MBP (natural protein)
chain: MERASLIQKAKLAEQAERYEDMAAFMKGAVEKGEELSCEERNLLSVAYKNVVGGQRAAWRVLSSIEQKSNEEGSEEKGPEVREYREKVETELQGVCDTVLGLLDSHLIKEAGDAESRVFYLKMKGDYYRYLAEVATGDDKKRIIDSARSAYQEAMDISKKEMPPTNPIRLGLALNFSVFHYEIANSPEEAISLAKTTFDEAMADLHTLSEDSYKDSTLIMQLLRDNLTLWTADNAGEEGGEAPQEPQS
B2: the values for the Kd in experiment [1], in experiment [2] and in experiment [3] were 6.8 µM, above 300 µM and 6.77 µM, respectively.

B3: full-length human 14-3-3η fused to the C terminus of MBP (natural protein)
chain: MGDREQLLQRARLAEQAERYDDMASAMKAVTELNEPLSNEDRNLLSVAYKNVVGARRSSWRVISSIEQKTMADGNEKKLEKVKAYREKIEKELETVCNDVLSLLDKFLIKNCNDFQYESKVFYLKMKGDYYRYLAEVASGEKKNSVVEASEAAYKEAFEISKEQMQPTHPIRLGLALNFSVFYYEIQNAPEQACLLAKQAFDDAIAELDTLNEDSYKDSTLIMQLLRDNLTLWTSDQQDEEAGEGN
Regarding B3, the equilibrium dissociation constant (Kd) in experiment [1] was determined as 2 µM; in experiment [2] it was 163 µM; in experiment [3], 1.98 µM; in experiment [4], 163 µM.

B4: full-length human 14-3-3ε fused to the C terminus of MBP (natural protein)
chain: MDDREDLVYQAKLAEQAERYDEMVESMKKVAGMDVELTVEERNLLSVAYKNVIGARRASWRIISSIEQKEENKGGEDKLKMIREYRQMVETELKLICCDILDVLDKHLIPAANTGESKVFYYKMKGDYHRYLAEFATGNDRKEAAENSLVAYKAASDIAMTELPPTHPIRLGLALNFSVFYYEILNSPDRACRLAKAAFDDAIAELDTLSEESYKDSTLIMQLLRDNLTLWTSDMQGDGEEQNKEALQDVEDENQ
Regarding B4, the Kd in experiment [1] was 10.3 µM; in experiment [2], above 300 µM.

B5: unfused 14-3-3β devoid of the flexible C-terminal tail (domain or fragment)
chain: MTMDKSELVQKAKLAEQAERYDDMAAAMKAVTEQGHELSNEERNLLSVAYKNVVGARRSSWRVISSIEQKTERNEKKQQMGKEYREKIEAELQDICNDVLELLDKYLIPNATQPESKVFYLKMKGDYFRYLSEVASGDNKQTTVSNSQQAYQEAFEISKKEMQPTHPIRLGLALNFSVFYYEILNSPEKACSLAKTAFDEAIAELDTLNEESYKDSTLIMQLLRDNLTLWT
For the molecule B5, the Kd in experiment [3] was 6.92 µM; in experiment [4] it was above 400 µM.

B6: unfused 14-3-3ε devoid of the flexible C-terminal tail (domain or fragment)
chain: MDDREDLVYQAKLAEQAERYDEMVESMKKVAGMDVELTVEERNLLSVAYKNVIGARRASWRIISSIEQKEENKGGEDKLKMIREYRQMVETELKLICCDILDVLDKHLIPAANTGESKVFYYKMKGDYHRYLAEFATGNDRKEAAENSLVAYKAASDIAMTELPPTHPIRLGLALNFSVFYYEILNSPDRACRLAKAAFDDAIAELDTLSEESYKDSTLIMQLLRDNLTLWTS
On to B6, for which the Kd was 7.94 µM in experiment [3] and above 300 µM in experiment [4].

B7: unfused 14-3-3τ devoid of the flexible C-terminal tail (domain or fragment)
chain: MEKTELIQKAKLAEQAERYDDMATCMKAVTEQGAELSNEERNLLSVAYKNVVGGRRSAWRVISSIEQKTDTSDKKLQLIKDYREKVESELRSICTTVLELLDKYLIANATNPESKVFYLKMKGDYFRYLAEVACGDDRKQTIDNSQGAYQEAFDISKKEMQPTHPIRLGLALNFSVFYYEILNNPELACTLAKTAFDEAIAELDTLNEDSYKDSTLIMQLLRDNLTLWT
For B7, the Kd in experiment [3] was 5.15 µM; in experiment [4] it was 363 µM.

B8: full-length human 14-3-3τ fused to the C terminus of MBP (natural protein)
chain: MEKTELIQKAKLAEQAERYDDMATCMKAVTEQGAELSNEERNLLSVAYKNVVGGRRSAWRVISSIEQKTDTSDKKLQLIKDYREKVESELRSICTTVLELLDKYLIANATNPESKVFYLKMKGDYFRYLAEVACGDDRKQTIDNSQGAYQEAFDISKKEMQPTHPIRLGLALNFSVFYYEILNNPELACTLAKTAFDEAIAELDTLNEDSYKDSTLIMQLLRDNLTLWTSDSAGEECDAAEGAEN
As to B8, the Kd in experiment [1] was 3.5 µM; in experiment [2], 233 µM; in experiment [3], 3.52 µM; in experiment [4], 233 µM.

These data come from PMC7961048 (2021).
